Experimental findings from paper PMC10200994, “A family-wide assessment of latent STAT transcription factor interactions reveals divergent dimer repertoires” (The Journal of Biological Chemistry, 2023) are described below.

First the molecules themselves.
B1: STAT5B (unphosphorylated, wild-type), fluorophore fusion (natural protein, UniProt P51692 1-787, looked up)
chain: MAVWIQAQQLQGEALHQMQALYGQHFPIEVRHYLSQWIESQAWDSVDLDNPQENIKATQLLEGLVQELQKKAEHQVGEDGFLLKIKLGHYATQLQNTYDRCPMELVRCIRHILYNEQRLVREANNGSSPAGSLADAMSQKHLQINQTFEELRLVTQDTENELKKLQQTQEYFIIQYQESLRIQAQFGPLAQLSPQERLSRETALQQKQVSLEAWLQREAQTLQQYRVELAEKHQKTLQLLRKQQTIILDDELIQWKRRQQLAGNGGPPEGSLDVLQSWCEKLAEIIWQNRQQIRRAEHLCQQLPIPGPVEEMLAEVNATITDIISALVTSTFIIEKQPPQVLKTQTKFAATVRLLVGGKLNVHMNPPQVKATIISEQQAKSLLKNENTRNDYSGEILNNCCVMEYHQATGTLSAHFRNMSLKRIKRSDRRGAESVTEEKFTILFESQFSVGGNELVFQVKTLSLPVVVIVHGSQDNNATATVLWDNAFAEPGRVPFAVPDKVLWPQLCEALNMKFKAEVQSNRGLTKENLVFLAQKLFNNSSSHLEDYSGLSVSWSQFNRENLPGRNYTFWQWFDGVMEVLKKHLKPHWNDGAILGFVNKQQAHDLLINKPDGTFLLRFSDSEIGGITIAWKFDSQERMFWNLMPFTTRDFSIRSLADRLGDLNYLIYVFPDRPKDEVYSKYYTPVPCESATAKAVDGYVKPQIKQVVPEFVNASADAGGGSATYMDQAPSPAVCPQAHYNMYPQNPDSVLDTDGDFDLEDTMDVARRVEELLGRPMDSQWIPHAQS
notes: STAT5B, full-length wild type; One molecule for bait and test copies; also called U-STAT5B; STAT5B-NES; source: HeLa, transiently transfected, in cells; not shown: mCherry (test copy) or mEGFP (bait copy), C-terminal, kept
B2: STAT5A (unphosphorylated, wild-type), fluorophore fusion (natural protein, UniProt P42229 1-794, looked up)
chain: MAGWIQAQQLQGDALRQMQVLYGQHFPIEVRHYLAQWIESQPWDAIDLDNPQDRAQATQLLEGLVQELQKKAEHQVGEDGFLLKIKLGHYATQLQKTYDRCPLELVRCIRHILYNEQRLVREANNCSSPAGILVDAMSQKHLQINQTFEELRLVTQDTENELKKLQQTQEYFIIQYQESLRIQAQFAQLAQLSPQERLSRETALQQKQVSLEAWLQREAQTLQQYRVELAEKHQKTLQLLRKQQTIILDDELIQWKRRQQLAGNGGPPEGSLDVLQSWCEKLAEIIWQNRQQIRRAEHLCQQLPIPGPVEEMLAEVNATITDIISALVTSTFIIEKQPPQVLKTQTKFAATVRLLVGGKLNVHMNPPQVKATIISEQQAKSLLKNENTRNECSGEILNNCCVMEYHQATGTLSAHFRNMSLKRIKRADRRGAESVTEEKFTVLFESQFSVGSNELVFQVKTLSLPVVVIVHGSQDHNATATVLWDNAFAEPGRVPFAVPDKVLWPQLCEALNMKFKAEVQSNRGLTKENLVFLAQKLFNNSSSHLEDYSGLSVSWSQFNRENLPGWNYTFWQWFDGVMEVLKKHHKPHWNDGAILGFVNKQQAHDLLINKPDGTFLLRFSDSEIGGITIAWKFDSPERNLWNLKPFTTRDFSIRSLADRLGDLSYLIYVFPDRPKDEVFSKYYTPVLAKAVDGYVKPQIKQVVPEFVNASADAGGSSATYMDQAPSPAVCPQAPYNMYPQNPDHVLDQDGEFDLDETMDVARHVEELLRRPMDSLDSRLSPPAGLFTSARGSLS
notes: STAT5A, full-length wild type; One molecule for bait and test copies; also called U-STAT5A; STAT5A-NES; source: HeLa, transiently transfected, in cells; not shown: mCherry (test copy) or mEGFP (bait copy), C-terminal, kept
B3: STAT1 (unphosphorylated, wild-type), fluorophore fusion (natural protein, UniProt P42224 1-750, looked up)
chain: MSQWYELQQLDSKFLEQVHQLYDDSFPMEIRQYLAQWLEKQDWEHAANDVSFATIRFHDLLSQLDDQYSRFSLENNFLLQHNIRKSKRNLQDNFQEDPIQMSMIIYSCLKEERKILENAQRFNQAQSGNIQSTVMLDKQKELDSKVRNVKDKVMCIEHEIKSLEDLQDEYDFKCKTLQNREHETNGVAKSDQKQEQLLLKKMYLMLDNKRKEVVHKIIELLNVTELTQNALINDELVEWKRRQQSACIGGPPNACLDQLQNWFTIVAESLQQVRQQLKKLEELEQKYTYEHDPITKNKQVLWDRTFSLFQQLIQSSFVVERQPCMPTHPQRPLVLKTGVQFTVKLRLLVKLQELNYNLKVKVLFDKDVNERNTVKGFRKFNILGTHTKVMNMEESTNGSLAAEFRHLQLKEQKNAGTRTNEGPLIVTEELHSLSFETQLCQPGLVIDLETTSLPVVVISNVSQLPSGWASILWYNMLVAEPRNLSFFLTPPCARWAQLSEVLSWQFSSVTKRGLNVDQLNMLGEKLLGPNASPDGLIPWTRFCKENINDKNFPFWLWIESILELIKKHLLPLWNDGCIMGFISKERERALLKDQQPGTFLLRFSESSREGAITFTWVERSQNGGEPDFHAVEPYTKKELSAVTFPDIIRNYKVMAAENIPENPLKYLYPNIDKDHAFGKYYSRPKEAPEPMELDGPKGTGYIKTELISVSEVHPSRLQTTDNLLPMSPEEFDEVSRIVGSVEFDSMMNTV
notes: STAT1, full-length wild type; One molecule for bait and test copies; Three to five further heterologous residues flank the NES or NLS; cloning details only on request; also called U-STAT1; S1; source: HeLa, transiently transfected, in cells; not shown: mCherry (test copy) or mEGFP (bait copy), C-terminal, kept
B4: STAT4 (unphosphorylated, wild-type), fluorophore fusion (natural protein, UniProt Q14765 1-748, looked up)
chain: MSQWNQVQQLEIKFLEQVDQFYDDNFPMEIRHLLAQWIENQDWEAASNNETMATILLQNLLIQLDEQLGRVSKEKNLLLIHNLKRIRKVLQGKFHGNPMHVAVVISNCLREERRILAAANMPVQGPLEKSLQSSSVSERQRNVEHKVAAIKNSVQMTEQDTKYLEDLQDEFDYRYKTIQTMDQSDKNSAMVNQEVLTLQEMLNSLDFKRKEALSKMTQIIHETDLLMNTMLIEELQDWKRRQQIACIGGPLHNGLDQLQNCFTLLAESLFQLRRQLEKLEEQSTKMTYEGDPIPMQRTHMLERVTFLIYNLFKNSFVVERQPCMPTHPQRPLVLKTLIQFTVKLRLLIKLPELNYQVKVKASIDKNVSTLSNRRFVLCGTNVKAMSIEESSNGSLSVEFRHLQPKEMKSSAGGKGNEGCHMVTEELHSITFETQICLYGLTIDLETSSLPVVMISNVSQLPNAWASIIWYNVSTNDSQNLVFFNNPPPATLSQLLEVMSWQFSSYVGRGLNSDQLHMLAEKLTVQSSYSDGHLTWAKFCKEHLPGKSFTFWTWLEAILDLIKKHILPLWIDGYVMGFVSKEKERLLLKDKMPGTFLLRFSESHLGGITFTWVDHSESGEVRFHSVEPYNKGRLSALPFADILRDYKVIMAENIPENPLKYLYPDIPKDKAFGKHYSSQPCEVSRPTERGDKGYVPSVFIPISTIRSDSTEPHSPSDLLPMSPSVYAVLRENLSPTTIETAMKSPYSAE
notes: STAT4, full-length wild type; One molecule for bait and test copies; also called U-STAT4; STAT4-NES; source: HeLa, transiently transfected, in cells; not shown: mCherry (test copy) or mEGFP (bait copy), C-terminal, kept

Where only a bound is given, the exact number is not on record here.

Assay in all cases: co-localization assay (relocalisation of a test protein by a compartment-targeted bait, fluorescence microscopy); HeLa cells co-expressing bait (STAT-NES or STAT-NLS, or wild-type STAT2 with its own export activity; green) and test protein without heterologous signal (red); no cytokine; fixed 20 h after transfection; Pearson correlation coefficient rP in cells with equimolar to 4-fold excess of bait

For data set [1], the target named is B2. As to conditions: partners not purified.
Data set [2] concerns the molecule itself.
In data set [3] the target is T1, STAT2 (unphosphorylated, wild-type), fluorophore fusion (UniProt P52630 1-851).
T1 construct: STAT2, full-length wild type; used as bait through its own nuclear export activity; No heterologous NES or NLS on wild-type STAT2; also called U-STAT2; S2; source: HeLa, transiently transfected, in cells; not shown: mEGFP or mCherry, C-terminal, kept
As to conditions: partners not purified.

T1 sequence (P52630 whole entry, the tested form may be a part): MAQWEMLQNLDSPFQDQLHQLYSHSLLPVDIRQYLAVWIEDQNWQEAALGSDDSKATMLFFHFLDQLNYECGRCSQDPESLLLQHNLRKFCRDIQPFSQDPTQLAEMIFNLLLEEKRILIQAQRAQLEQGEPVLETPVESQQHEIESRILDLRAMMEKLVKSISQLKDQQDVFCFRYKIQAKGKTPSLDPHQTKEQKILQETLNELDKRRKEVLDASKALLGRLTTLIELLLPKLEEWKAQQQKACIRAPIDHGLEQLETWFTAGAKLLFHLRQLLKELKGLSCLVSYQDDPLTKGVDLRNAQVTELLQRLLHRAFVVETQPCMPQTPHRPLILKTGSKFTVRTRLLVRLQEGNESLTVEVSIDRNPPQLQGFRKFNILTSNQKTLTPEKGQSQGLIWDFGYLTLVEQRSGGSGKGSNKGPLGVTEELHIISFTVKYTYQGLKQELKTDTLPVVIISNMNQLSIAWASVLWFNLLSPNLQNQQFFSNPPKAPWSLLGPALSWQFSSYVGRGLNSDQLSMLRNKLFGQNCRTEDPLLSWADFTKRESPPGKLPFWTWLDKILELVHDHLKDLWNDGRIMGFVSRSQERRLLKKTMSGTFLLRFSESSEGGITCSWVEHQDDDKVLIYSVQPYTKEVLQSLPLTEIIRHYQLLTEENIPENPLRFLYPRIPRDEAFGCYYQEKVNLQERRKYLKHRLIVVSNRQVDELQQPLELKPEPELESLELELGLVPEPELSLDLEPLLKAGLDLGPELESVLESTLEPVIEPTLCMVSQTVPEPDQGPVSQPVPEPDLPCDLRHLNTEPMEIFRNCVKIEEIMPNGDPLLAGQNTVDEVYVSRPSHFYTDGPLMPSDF

On to B1, for which the “Pearson correlation coefficient rP (co-localization)” value (from here on “Pearson correlation coefficient rP”) in data set [1] was 0.97; in data set [2], no less than 0.94.

Turning to B2, in data set [2], the “Pearson correlation coefficient rP” value was no less than 0.94.

Regarding B3, in data set [3], the “Pearson correlation coefficient rP” value was determined as 0.97.

For the molecule B4, the “Pearson correlation coefficient rP” value in data set [2] was no less than 0.94.
